Like-named read-outs stand apart in the source and are kept apart here.
Tests used:
gp11 = system: T1, gp11; experiment: coupled pyruvate kinase / lactate dehydrogenase assay, NADH absorbance at […] nm; type: biochemical, Lactococcus phage asccphi28; conditions: 0.1 µM gp11, 50 mM Tris pH 7.5, 72 mM KCl, 7.2 mM MgSO4, 2 mM PEP, 0.3 mM NADH
T1 construct: E. coli BL21(DE3)

[1] = biological target: gene product 11 (gp11), DNA packaging ATPase from Lactococcus lactis phage asccφ28 (Lactococcus lactis phage asccφ28); experiment: AUC; sedimentation velocity, data not shown
[2] = biological target: gene product 11 (gp11), DNA packaging ATPase from Lactococcus lactis phage asccφ28 (Lactococcus lactis phage asccφ28); experiment: SEC
[3] = biological target: gene product 11 (gp11), DNA packaging ATPase from Lactococcus lactis phage asccφ28 (Lactococcus lactis phage asccφ28); experiment: AUC

## Nc1nc2c(ncn2[C@@H]2O[C@H](COP(=O)(O)OP(=O)(O)OP(=O)(O)O)[C@@H](O)[C@H]2O)c(=O)[nH]1 [GTP]
gp11; read-out: GTP
  Km: 344 µM

## gene product 11 (gp11), DNA packaging ATPase from Lactococcus lactis phage asccφ28 (enzyme)
[1]
  stoichiometry N: 10 monomers
[2]
  stoichiometry N: 4 to 15 copies
[3]
  stoichiometry N: 10 monomers

## Nc1ncnc2c1ncn2[C@@H]1O[C@H](COP(=O)(O)OP(=O)(O)OP(=O)(O)O)[C@@H](O)[C@H]1O [ATP]
gp11; read-out: ATP
  Km: 28 µM
